In experiment [1] the target is T1, Mota Fab.
T1 construct: also called Motavizumab Fab; Fab portion of Motavizumab
Kind of experiment: SPR (Biacore 2000); koff/kon; scaffold coupled to chip, Motavizumab as analyte. In general terms: Surface plasmon resonance follows binding to a sensor surface in real time, without labels.

For experiment [2], the target named is T1, Mota Fab. Kind of experiment: SPR (Biacore 2000); scaffold coupled to chip, Motavizumab as analyte.
Procedure: All experiments were carried out on a Biacore 2000 (GE Healthcare) at 25° C. with HBSEP (0.01 M HEPES pH 7.4, 0.15 M NaCl, 3 mM EDTA and 0.005% (v/v) Surfactant P20) (GE Healthcare) as running buffer. […] Samples of different protein concentrations were injected in duplicates over this surface at a flow rate of 50-100 μl/min. If necessary, surface regeneration was performed with two 60 seconds injections of 3 M MgCl₂ at a flow rate of 10 μl/min. One flow cell contained anti-human IgG only and its interaction with the analyte was used as reference. Alternatively, another format was used where the epitope where amine-coupled to the sensor chip and Mota Fab was injected with identical flow rates as mentioned above.
To test whether the functional site (mota epitope) was recreated with fidelity, binding affinities were assessed by Surface Plasmon Resonance (SPR) experiments (FIG. 6). […] (See Table 3) The scaffolds were coupled to the biacore chip and Motavizumab was used as analyte.

B1: FFL_001 (designed binder)
chain: GSRSDMRKDAERRFDKFVEAAKNKFDKFKAALRKGDIKEERRKDMKKLARKEAEQARRAVRNRLSELLSKINDMPITNDQKKLMSNDVLKFAAEAEKKIEALAADAEDKFTQGSW
notes: monomeric
What is called Kd is the constant that tells how readily two partners part at equilibrium. Low values mean a tighter complex, high ones a looser complex. Broadly, the koff is the first-order rate constant of dissociation. Lower therefore signals slow dissociation. A word on the kon: it is the second-order rate constant of association. The low end stands for slower complex formation, the high end for faster complex formation. For B1, the Kd in experiment [1] turned out to be 0.03 nM. In experiment [2], this molecule came in with a koff of 0.000119 s⁻¹ and a kon of 3.99e+06 M⁻¹ s⁻¹.

B2: FFL_006 (designed binder)
chain: GSFSDIRKDAEDRADKAFEAAKNKFDKIKAAIRKDWPSEERAKDLMKKARYEMEQARRAIRNIESEALSKINDLPITNDQKKLASNDIIKEMARLFKKLEALMADIEILVTQ
notes: Purified on Ni++ resin; no tag is stated for this construct
Take B2: the Kd in experiment [1] amounted to 0.652 nM.

B3: FFL_005 (designed binder)
chain: GSMSDIRKDLEERFDKLVEALKNKVDKMKAAFRKDQFHEERMKDWFKDLRKEVEQMRRAVRNYASEALSKINDLPITNDDKKLASNDVLKLVAEVWKKLEAILADVEAWFTQLEHHHHHH
Regarding B3, the dissociation constant (Kd) in experiment [1] worked out at 0.0703 nM. Further, in experiment [2], the koff is 0.000209 s⁻¹ and the kon amounted to 2.97e+06 M⁻¹ s⁻¹.

B4: FFL_004 (designed binder)
chain: GSMSDARKDLEERLDKLLEAAKNKMDKFKAAMRKRGQREERKKDWAKIVRDEFEQFRKAVRNFLSEALSKINDYPITNDDKKLTSNDTKKFAAEVEKKLEAFKADVEEAATQ
notes: as for B2
In experiment [1], B4 had a Kd of 0.795 nM. In experiment [2], the koff was determined as 0.000832 s⁻¹ and the kon turned out to be 1.05e+06 M⁻¹ s⁻¹.

B5: FFL_007 (designed binder)
chain: GSLSDIRKDAERRFDKLVEAVKNKLDKMKAALRKEGQQEERMKDLMKFMRKEVEQLRKAMRNFLSEALSKINDMPITNDDKKLISNDLKKYDAIAEKKLEAMKADVERMATQGSWLEHHHHHH
B5 had a Kd in experiment [1] of 0.0941 nM. Further, in experiment [2], the koff worked out at 0.000136 s⁻¹ and the kon worked out at 1.45e+06 M⁻¹ s⁻¹.

B6: FFL_002 (designed binder)
chain: GSLSDVRKDVEKRIDKALEAFKNKMDKEKAAFRKDPPSEERRKDKKKEFREEREQVRKAIRNVLSEALSKINDLPITNDKKKLVSNDVIKKVAEMKKKVELEVADVEKKVTQGSW
notes: as for B2
Turning to B6, in experiment [1], the Kd turned out to be 0.47 nM. In addition, in experiment [2], the koff was determined as 0.000734 s⁻¹ and the kon came to 1.56e+06 M⁻¹ s⁻¹.

The values are drawn from patent publication US20150050306A1 (University of Washington, published 2015).
